The stoichiometry N is a count of units in the complex or per binding partner.

In this experiment the target is BIR3 domain of XIAP (human) (UniProt P98170). As to the kind of experiment: SEC. For orientation: Size exclusion chromatography separates by hydrodynamic size, large species first.

The substance “BIR3 domain of XIAP (from UniProt P98170 241-356) (domain or fragment)” returned a stoichiometry N of 2.

(Values after publication PMC11151819.)
